Measurements published in article PMC6735865 (Nucleic Acids Research, 2019).

Target: human METTL5, C-terminally His6-tagged (human, UniProt Q9NRN9)
Assay: pull-down

Chain of human METTL5, C-terminally His6-tagged (Q9NRN9 whole entry): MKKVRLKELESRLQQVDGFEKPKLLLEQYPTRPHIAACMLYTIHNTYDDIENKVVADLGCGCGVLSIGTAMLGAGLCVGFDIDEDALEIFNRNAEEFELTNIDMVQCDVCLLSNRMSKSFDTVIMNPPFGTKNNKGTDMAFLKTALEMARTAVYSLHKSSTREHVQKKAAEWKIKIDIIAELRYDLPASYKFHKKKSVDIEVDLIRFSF

B1: human TRMT112, untagged (natural protein)
chain: MKLLTHNLLSSHVRGVGSRGFPLRLQATEVRICPVEFNPNFVARMIPKVEWSAFLEAADNLRLIQVPKGPVEGYEENEEFLRTMHHLLLEVEVIEGTLQCPESGRMFPISRGIPNMLLSEEETES
- binding result: binds
